The target in assay [1] is T1, bovine pancreatic trypsin (bovine, UniProt P00760 24-246).
T1 construct: It was dialyzed into the ITC buffer and flowed over the chip in SPR
Put plainly: ITC, SAP-2 (1.0 mM) injected into trypsin (20 µM), 25 °C (FIG. 8).

In assay [2] the target is T1, bovine pancreatic trypsin. Put plainly: ITC, SAP-1 injected into trypsin, 303 K.
The target in assay [3] is T1, bovine pancreatic trypsin. As to the kind of experiment: ITC, SAP-1 (1 mM) injected into trypsin (20 µM), 293 K. How it is done:
Figure 7: FIG. 7 provides an ITC analysis of the interaction between SAP-1 and bovine pancreatic trypsin. SAP-1 was dissolved in 20 mM cacadylate (pH 7.0), 20 mM NaCl at a final concentration of 1 mM. Trypsin was dialyzed into the same buffer and was used in the calorimeter cell at a concentration of 20 µM. The temperature was maintained at 20° C. Forty injections of 5 µL each were employed with a 240 second re-equilibrium time between injections.
A general note: In ITC the heat of successive injections is recorded.

Assay [4] concerns the target T1, bovine pancreatic trypsin. Put plainly: isothermal titration calorimetry, 30 °C. The protocol:
Figure 6: FIG. 6 provides an ITC analysis of the interaction between SAP and bovine pancreatic trypsin. SAP was dissolved in 20 mM cacodylate (pH 7.0), 20 mM NaCl at a final concentration of 2 mM. Trypsin was dialyzed into the same buffer and was used in the calorimeter cell at a concentration of 20 µM. No binding is evident throughout the titration. The temperature was maintained at 30° C. Forty injections of 5 µL each were employed with a 240 second re-equilibrium time between injections.
The ability of SAP, SAP-1, and SAP-2 to bind bovine pancreatic trypsin was measured by isothermal titration calorimetry (ITC). […] Under all experimental conditions, there is no detectable binding.

Bridges are numbered along the chain shown (N, C = ends). Where no end group is shown, it is not given here.

T1 sequence (P00760 24-246): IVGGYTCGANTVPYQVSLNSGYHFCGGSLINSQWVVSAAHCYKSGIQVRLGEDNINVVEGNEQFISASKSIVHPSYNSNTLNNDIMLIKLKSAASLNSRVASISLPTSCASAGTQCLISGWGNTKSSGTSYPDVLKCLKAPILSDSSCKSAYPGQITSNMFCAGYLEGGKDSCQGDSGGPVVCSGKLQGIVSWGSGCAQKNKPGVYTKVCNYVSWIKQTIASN

B1: SAP-2 (SAP backbone with the library-selected YKLKY insert) (designed binder)
chain: CPSQPTYPGDPYKLKYGPVEDLIRFYDNLQQWLNCVTAAC
notes: It was expressed in E. coli; In SPR it was coupled to the chip through the C-terminal cysteine thiol; also called recombinant SAP-2
In assay [1], B1 yielded a Ka of 640000 M⁻¹, a Stoichiometry of 0.995, a ΔH of -31.2 kcal/mol and a ΔS of -16.2 cal mol^-1 K^-1.

B2: SAP-1 (SAP backbone with the PYRIRF insert from Bovine Pancreatic Trypsin Inhibitor) (designed binder)
chain: CPSQPTYPGDPPYRIRFGPVEDLIRFYDNLQQWLNCVTAAC
notes: It was expressed in E. coli; In SPR it was coupled to the chip through the C-terminal cysteine thiol
B2: in assay [2], the Ka was determined as 2.4e+06 M⁻¹, the Stoichiometry came out at 0.99, the ΔH is -15.4 kcal/mol and the ΔS was -21.1 cal mol^-1 K^-1. Besides, in assay [3], the Ka came to 1.65e+06 M⁻¹, the Stoichiometry stood at 0.975, the ΔH is -26.1 kcal/mol and the ΔS is -11.6 cal mol^-1 K^-1.

B3: SAP (Synthetic Antibody Peptide), parental peptide backbone (designed binder)
chain: MCPSQPTYPGDPGPVEDLIRFYDNLQQWLNCVTAAC
modifications: disulfide 2-31
notes: Re-engineered avian pancreatic polypeptide with no insert; It was expressed in E. coli from pSAPe and purified; also called SAP peptide; SAP molecule
Regarding B3, the binding result in assay [4] is “no binding”.

Values taken from patent US6822073 (KIMBERLY CLARK WORLDWIDE, dated 2004).
